From the Human Domainome abundance scans (Beltran et al. 2025)
± gives the uncertainty stated by the source.

B1: Receptor-interacting serine/threonine-protein kinase 2, residues 438 to 518; numbered along this chain, O43353 (parent)
chain: QWIQSKREDIVNQMTEACLNQSLDALLSRDLIMKEDYELVSTKPTRTSKVRQLLDTTDIQGEEFAKVIVQKLKDNKQMGLQ
B2: Protein maelstrom homolog, residues 3 to 71; numbered along this chain, Q96JY0 (parent)
chain: NRKASRNAYYFFVQEKIPELRRRGLPVARVADAIPYCSSDWALLREEEKEKYAEMAREWRAAQGKDPGP

Variants of: B1
Assay: abundance fitness (aPCA) (normalised: wild type 0, dead -1); higher = more abundant; growth selection in yeast, the domain comes from the species named
Details: Homo sapiens

| Variant | abundance fitness |
| --- | --- |
| Q4P | -0.923 ± 0.35 |
| Q4M | 0.279 ± 0.29 |
| K66Q | -0.135 ± 0.074 |
| K66N | -0.58 ± 0.43 |
| M33E | 0.067 ± 0.11 |
| L19Y | -0.607 ± 0.24 |
| L19S | -0.792 ± 0.16 |
| L19N | -0.454 ± 0.34 |
| S28G | -0.363 ± 0.064 |
| N12M | -0.002 ± 0.19 |
| N12C | -0.028 ± 0.1 |
| N12L | -0.068 ± 0.059 |
| R7S | -0.419 ± 0.073 |
| N75T | -0.245 ± 0.066 |
| L39E | -0.003 ± 0.14 |
| A65H | -0.44 ± 0.081 |
| D74H | 0.046 ± 0.096 |
| K49M | -0.137 ± 0.23 |
| I32F | -0.842 ± 0.23 |
| E62Y | -0.913 ± 0.25 |
| V40R | -0.836 ± 0.082 |
| V40I | 0.146 ± 0.19 |
| V40Y | -0.438 ± 0.48 |

| Variant | abundance fitness |
| --- | --- |
| L54K | -0.408 ± 0.25 |
| D24A | -0.106 ± 0.084 |
| T47L | -0.373 ± 0.097 |
| K43Q | -0.098 ± 0.14 |
| K43T | -0.89 ± 0.25 |
| E8V | -0.301 ± 0.072 |
| E35F | -0.693 ± 0.19 |
| L31K | -0.574 ± 0.2 |
| V67R | -0.854 ± 0.087 |
| V67M | -0.674 ± 0.1 |
| P44K | -0.298 ± 0.16 |
| P44V | -0.214 ± 0.071 |
| I10V | -0.628 ± 0.12 |
| I10C | -0.712 ± 0.17 |
| D55M | -0.03 ± 0.14 |
| D55I | -0.168 ± 0.11 |
| D55K | -0.469 ± 0.23 |
| L72V | -0.394 ± 0.097 |
| E38R | -0.227 ± 0.072 |
| E38H | -0.06 ± 0.13 |
| L27D | -0.198 ± 0.13 |
| T56N | -0.572 ± 0.22 |
| L23G | -0.67 ± 0.11 |

| Variant | abundance fitness |
| --- | --- |
| S41M | 0.166 ± 0.047 |
| S41C | -0.042 ± 0.07 |
| T42D | -0.318 ± 0.087 |
| T42E | -0.158 ± 0.29 |
| C18Y | -0.795 ± 0.22 |
| C18T | 0.158 ± 0.084 |
| C18D | -0.796 ± 0.25 |
| C18I | -0.384 ± 0.12 |
| A17L | -0.186 ± 0.068 |
| V50S | -0.389 ± 0.053 |
| V50L | -0.817 ± 0.088 |
| Q52G | -0.556 ± 0.056 |
| Q52Y | -0.77 ± 0.41 |
| S48N | -0.892 ± 0.28 |
| S48R | -0.466 ± 0.065 |
| E63V | -0.592 ± 0.084 |
| I68Q | -0.554 ± 0.12 |
| I68H | -0.508 ± 0.082 |
| R51L | -0.254 ± 0.07 |
| R29T | -0.438 ± 0.11 |
| R29Y | -0.321 ± 0.14 |
| R29F | 0.192 ± 0.27 |
| G61V | -0.253 ± 0.09 |

| Variant | abundance fitness |
| --- | --- |
| Q60M | -0.188 ± 0.1 |
| Q21F | -0.776 ± 0.28 |
| G79S | -0.021 ± 0.18 |
| F64L | -0.295 ± 0.054 |
| F64K | -0.566 ± 0.19 |
| F64I | -0.269 ± 0.23 |
| F64W | -0.384 ± 0.082 |
| Y37P | -0.614 ± 0.084 |
| W2L | -0.45 ± 0.074 |
| W2V | -0.632 ± 0.1 |
| S22L | -0.057 ± 0.072 |
| A25V | -0.133 ± 0.092 |
| V69W | -0.4 ± 0.067 |
| R46P | -0.519 ± 0.1 |
| R46D | -0.221 ± 0.088 |
| Q70H | -0.351 ± 0.3 |
| Q70A | -0.072 ± 0.058 |
| K34F | -0.191 ± 0.17 |
| L26M | -0.662 ± 0.13 |
| L26H | -0.289 ± 0.18 |
| L26Y | -0.879 ± 0.3 |
| K73P | -0.633 ± 0.071 |

Variants of: B2
Assay: as above
Details: Homo sapiens

| Variant | abundance fitness |
| --- | --- |
| K65G | -0.048 ± 0.046 |
| K65C | 0.074 ± 0.13 |
| K65Q | -0.084 ± 0.089 |
| K65R | -0.037 ± 0.042 |
| K65Y | -0.109 ± 0.17 |
| K65P | -0.134 ± 0.092 |
| K65H | -0.259 ± 0.11 |
| K65N | -0.116 ± 0.14 |
| K65A | -0.206 ± 0.071 |
| K65E | -0.082 ± 0.078 |
| K65M | -0.497 ± 0.14 |
| K65T | -0.26 ± 0.079 |
| K65V | -0.12 ± 0.065 |
| K65S | -0.154 ± 0.066 |
| K65F | -0.117 ± 0.1 |
| K65L | -0.175 ± 0.068 |
| G68R | -0.079 ± 0.057 |
| G68F | -0.119 ± 0.14 |
| G68S | -0.273 ± 0.098 |
| G68A | -0.139 ± 0.1 |
| G68H | 0.038 ± 0.18 |
| G68W | -0.128 ± 0.098 |
| G68M | -0.048 ± 0.086 |
| G68D | -0.083 ± 0.087 |
| G68C | -0.12 ± 0.17 |
| G68Q | -0.064 ± 0.1 |

| Variant | abundance fitness |
| --- | --- |
| G68K | -0.025 ± 0.11 |
| G68Y | -0.646 ± 0.18 |
| G68T | -0.186 ± 0.15 |
| G68E | 0.014 ± 0.068 |
| G68V | -0.376 ± 0.072 |
| G68I | -0.296 ± 0.15 |
| G68L | -0.309 ± 0.06 |
| G68N | -0.459 ± 0.26 |
| R57H | 0.206 ± 0.14 |
| R57F | -0.332 ± 0.23 |
| R57Y | -0.236 ± 0.23 |
| R57Q | -0.104 ± 0.1 |
| R57D | -0.072 ± 0.21 |
| R57N | -0.135 ± 0.17 |
| R57K | 0.001 ± 0.13 |
| R57T | -0.054 ± 0.098 |
| R57L | 0.003 ± 0.073 |
| R57G | -0.159 ± 0.068 |
| R57C | -0.089 ± 0.15 |
| R57A | 0.05 ± 0.078 |
| R57E | 0.021 ± 0.097 |
| R57S | -0.034 ± 0.09 |
| R57W | -0.378 ± 0.094 |
| R57M | -0.01 ± 0.11 |
| R57I | -0.398 ± 0.42 |
| R57V | -0.093 ± 0.099 |

| Variant | abundance fitness |
| --- | --- |
| E58G | -0.082 ± 0.063 |
| E58A | -0.086 ± 0.071 |
| E58I | -0.279 ± 0.14 |
| E58H | 0.246 ± 0.18 |
| E58R | -0.189 ± 0.057 |
| E58Q | -0.17 ± 0.1 |
| E58W | -0.523 ± 0.12 |
| E58K | -0.014 ± 0.1 |
| E58Y | -0.972 ± 0.39 |
| E58P | -0.521 ± 0.16 |
| E58T | -0.392 ± 0.11 |
| E58F | -0.319 ± 0.19 |
| E58L | -0.165 ± 0.071 |
| E58S | -0.24 ± 0.097 |
| E58M | -0.594 ± 0.17 |
| E58D | -0.09 ± 0.26 |
| E58V | -0.256 ± 0.1 |
| E58C | -0.245 ± 0.13 |
| A56D | -0.31 ± 0.097 |
| A56I | -0.539 ± 0.23 |
| A56Q | -0.226 ± 0.078 |
| A56R | -0.523 ± 0.045 |
| A56S | -0.02 ± 0.036 |
| A56K | -0.671 ± 0.12 |
